The source of these data is patent publication US20250002576A1 (FUSION PHARMACEUTICALS, published 2025).

Substitutions are numbered along the chain they refer to.

One experiment has as its target lysozyme. Kind of experiment: non-specific binding ELISA, lysozyme immobilized. The protocol:
DNA, LPS, lysozyme, and cell lysate were immobilized onto microtiter plates. Testing antibodies were added to the wells and incubated. Bound antibodies were detected via a fluorescently-labeled substrate. The fluorescence intensity was normalized to the signal of a control antibody (trastuzumab). Higher normalized signal correlates to stronger off-target or non-specific binding.

In experiment [1] the target is T1, hCLDN18.1 (antigen of the scFv screening) (human, UniProt P56856 28-80).
T1 construct: ELISA or flow cytometry according to the selection strategy
T1 sequence (looked up): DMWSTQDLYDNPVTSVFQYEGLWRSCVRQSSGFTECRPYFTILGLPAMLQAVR
The experiment in a line: ELISA or flow cytometry, scFv screening. As for the experimental part: A naïve human antibody library was used to select CLDN18.2 antibodies and incubated with CLDN18.2 antigen or CLDN18.2-expressing cells for four rounds of biopanning, following the strategy described in Table 3. Monoclonal antibody clones were selected, produced as scFv antibodies, and screened using ELISA (clones identified from Strategy 1 or 2) or flow cytometry (clones identified from Strategy 3 or 4) to identify clones with hCLDN18.2 affinity and no hCLDN18.1 cross-reactivity. 188 such clones were and subsequently sequenced, yielding 68 unique antibodies. The unique antibodies were further screened using flow cytometry to identify clones with mCLDN18.2 affinity, yielding 50 human/mouse cross-reactive antibody clones.

B1: YU574-H09 (antibody, V domains shown)
VH: QVQLVQSGAEVKKPGASVKVSCKASGYTFTSYYMHWVRQAPGQGLEWMGIINPSGGSTSYAQKFQGRVTMTRDTSTSTVYMELSSLRSEDTAVYYCARGGSGFDYWGQGTLVTVSS
VL: not shown
Consider B1, for which the “normalized signal (fluorescence intensity normalized to trastuzumab)” value (shortened to “normalized signal”) with lysozyme was found to be 1.3.

B2: YU574-H09 (scFv as screened) (scFv, V domains shown)
VH: B1 VH
VL: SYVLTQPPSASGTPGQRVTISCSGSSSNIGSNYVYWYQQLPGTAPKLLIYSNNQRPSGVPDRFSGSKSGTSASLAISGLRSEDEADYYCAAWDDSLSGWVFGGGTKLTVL
On to B2, for which the binding result in experiment [1] is listed as “no binding”.

B3: YU574-D03 (antibody, V domains shown)
VH: not shown
VL: DIVMTQSPSSVSASVGDRVTITCRASQGISSWLAWYQQKPGKAPKLLIYAASSLQSGVPSRFSGSGSGTDFTLTISSLQPEDFATYYCQQANSFPLTFGGGTKVDIK
For the molecule B3, in the experiment with lysozyme, the “normalized signal” value was 1.1.

B4: YU578-D01 (scFv as screened) (scFv, V domains shown)
VH: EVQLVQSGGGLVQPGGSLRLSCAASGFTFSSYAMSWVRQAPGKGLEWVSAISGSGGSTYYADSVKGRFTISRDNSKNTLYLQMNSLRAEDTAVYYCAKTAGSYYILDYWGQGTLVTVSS
VL: B3 VL with V3Q, M4L, V11L, S31N, W32Y, Y36F, L46S, R61K, A91Y, F94Y
For B4, in experiment [1], the binding result is “no binding”.

B5: YU577-H07 (scFv as screened) (scFv, V domains shown)
VH: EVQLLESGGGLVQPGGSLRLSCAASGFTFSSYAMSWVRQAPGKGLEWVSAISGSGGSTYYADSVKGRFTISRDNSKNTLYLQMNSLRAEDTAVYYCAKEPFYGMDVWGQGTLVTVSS
VL: B3 VL with V3Q, V104L, D105E
B5: in experiment [1], the binding result is listed as “no binding”.

B6: YU577-H07 (antibody, V domains shown)
VH: not shown
VL: B3 VL with V3Q, V104L, D105E
With B6, in the experiment with lysozyme, the “normalized signal” value came out at 1.3.

B7: YU577-E12 (scFv as screened) (scFv, V domains shown)
VH: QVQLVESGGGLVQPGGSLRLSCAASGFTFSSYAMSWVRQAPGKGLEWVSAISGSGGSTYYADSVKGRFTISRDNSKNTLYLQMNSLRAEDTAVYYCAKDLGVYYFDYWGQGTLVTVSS
VL: B3 VL with S10F, V11L, V15A, W32Y, A43G, S53T, D70E, A91V, F94Y, G100P
B7: the binding result in experiment [1] is “no binding”.

B8: YU577-B11 (scFv as screened) (scFv, V domains shown)
VH: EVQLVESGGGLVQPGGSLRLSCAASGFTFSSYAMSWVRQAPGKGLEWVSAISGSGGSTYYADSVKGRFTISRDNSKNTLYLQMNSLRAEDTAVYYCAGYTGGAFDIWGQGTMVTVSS
VL: B3 VL with V3Q, V104L, D105E
With B8, in experiment [1], the binding result is “no binding”.

B9: YU574-D03 (scFv as screened) (scFv, V domains shown)
VH: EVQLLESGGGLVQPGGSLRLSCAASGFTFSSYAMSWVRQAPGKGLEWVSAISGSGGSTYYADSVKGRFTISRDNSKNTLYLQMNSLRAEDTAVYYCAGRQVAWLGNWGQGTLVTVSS
VL: B3 VL
In the case of B9, the binding result in experiment [1] was “no binding”.

B10: YU577-E08 (scFv as screened) (scFv, V domains shown)
VH: QVQLVQSGAEVKKPGASVKVSCKASGYTFTSYYMHWVRQAPGQGLEWMGIINPSGGSTSYAQKFQGRVTMTRDTSTSTVYMELSSLRSEDTAVYYCATRQFDYWGQGTLVTVSS
VL: QSVLTQPPSVSAAPGQKVTISCSGSSSNIGNNYVSWYQQLPGTAPKLLIYENNKRPSGIPDRFSGSKSGTSATLGITGLQTGDEADYYCGTWDSSLSAAVFGGGTKVTVL
On to B10, for which the binding result in experiment [1] is listed as “no binding”.

B11: YU577-B01 (scFv as screened) (scFv, V domains shown)
VH: EVQLVESGGGVVQPGRSLRLSCAASGFTFSSYGMHWVRQAPGKGLEWVAVISYDGSNKYYADSVKGRFTISRDNSKNTLYLQMNSLRAEDTAVYYCAKDVTYYYDSSGSPDFDYWGQGTLVTVSS
VL: DIQLTQSPSSLSASVGDRVTITCRASQGISNYLAWFQQKPGKAPKSLIYAASSLQSGVPSKFSGSGSGTDFTLTISSLQPEDFATYYCQQYNSYPYSFGQGTKVEIK
As to B11, the binding result in experiment [1] is given as “no binding”.

B12: YU578-F02 (antibody, V domains shown)
VH: not shown
VL: DIVMTQSPSFLSASVGDRVTITCRASQGISSYLAWYQQKPGKAPKLLIYAASTLQSGVPSRFSGSGSGTEFTLTISSLQPEDFATYYCQQLNSYPITFGQGTKLEIK
In the case of B12, in the experiment with lysozyme, the “normalized signal” value came out at 1.

B13: YU578-F02 (scFv as screened) (scFv, V domains shown)
VH: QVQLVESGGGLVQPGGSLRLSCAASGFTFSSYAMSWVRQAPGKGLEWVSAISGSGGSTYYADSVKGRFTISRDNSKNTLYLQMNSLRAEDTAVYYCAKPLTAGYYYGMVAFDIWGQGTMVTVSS
VL: B12 VL
In the case of B13, in experiment [1], the binding result is listed as “no binding”.

B14: YU575-H03 (antibody, V domains shown)
VH: not shown
VL: QSVLTQPPSVSGAPGQRVTISCTGSSSNIGAGYDVHWYQQLPGTAPKLLIYGNSNRPSGVPDRFSGSKSGTSASLAITGLQAEDEADYYCQSYDSSLSGYVFGTGTKLTVL
Turning to B14, the “normalized signal” value with lysozyme amounted to 0.9.

B15: YU574-D11 (scFv as screened) (scFv, V domains shown)
VH: QVQLVQSGGGLVQPGGSLRLSCAASGFTFSSYAMSWVRQAPGKGLEWVSAISGSGGSTYYADSVKGRFTISRDNSKNTLYLQMNSLRAEDTAVYYCAGGANGFDPWGQGTLVTVSS
VL: B14 VL with Y100L, T104G
With B15, the binding result in experiment [1] was “no binding”.

B16: YU575-H03 (scFv as screened) (scFv, V domains shown)
VH: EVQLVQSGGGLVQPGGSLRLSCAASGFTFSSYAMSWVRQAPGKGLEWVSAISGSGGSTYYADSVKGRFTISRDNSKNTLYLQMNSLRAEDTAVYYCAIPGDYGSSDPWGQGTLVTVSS
VL: B14 VL
As for B16, the binding result in experiment [1] is “no binding”.

B17: YU574-E07 (scFv as screened) (scFv, V domains shown)
VH: QVQLQESGGGVVQPGRSLRLSCAASGFTFSSYGMHWVRQAPGKGLEWVAVISYDGSNKYYADSVKGRFTISRDNSKNTLYLQMNSLRAEDTAVYYCAKDQRGGLYGMDVWGQGTLVTVSS
VL: B14 VL with V10A, Y100W, T104G
As to B17, the binding result in experiment [1] is reported as “no binding”.
